Reference: paper PMC9037914 (PLoS Pathogens, 2022)

T1: Plasmodium falciparum myosin A (P. falciparum, UniProt Q8IDR3 1-818)
T1 construct: also called PfMyoA; MyoA
T1 sequence: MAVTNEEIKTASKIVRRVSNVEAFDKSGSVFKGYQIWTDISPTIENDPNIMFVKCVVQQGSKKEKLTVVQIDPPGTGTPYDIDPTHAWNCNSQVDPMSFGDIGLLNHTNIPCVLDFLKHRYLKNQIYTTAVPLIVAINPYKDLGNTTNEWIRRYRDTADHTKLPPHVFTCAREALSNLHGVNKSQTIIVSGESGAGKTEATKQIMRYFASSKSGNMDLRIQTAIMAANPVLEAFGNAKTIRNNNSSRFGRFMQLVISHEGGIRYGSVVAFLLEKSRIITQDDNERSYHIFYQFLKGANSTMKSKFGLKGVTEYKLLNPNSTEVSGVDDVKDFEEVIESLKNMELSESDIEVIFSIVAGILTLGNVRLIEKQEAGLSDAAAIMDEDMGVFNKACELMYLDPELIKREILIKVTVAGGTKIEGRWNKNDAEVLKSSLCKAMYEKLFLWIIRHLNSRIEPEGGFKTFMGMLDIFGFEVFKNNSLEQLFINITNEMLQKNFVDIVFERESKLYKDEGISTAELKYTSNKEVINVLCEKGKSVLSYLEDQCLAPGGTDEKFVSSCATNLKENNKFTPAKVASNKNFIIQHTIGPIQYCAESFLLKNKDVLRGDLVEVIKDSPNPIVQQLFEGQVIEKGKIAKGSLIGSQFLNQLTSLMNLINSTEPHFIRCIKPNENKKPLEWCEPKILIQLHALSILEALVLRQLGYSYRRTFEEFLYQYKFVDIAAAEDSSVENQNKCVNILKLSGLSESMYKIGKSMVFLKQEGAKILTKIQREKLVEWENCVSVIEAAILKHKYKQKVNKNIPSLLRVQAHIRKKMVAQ

T2: MyoA:ELC:MTIP complex (P. falciparum, UniProt Q8IDR3;Q8IJM4;Q8I4W8)
T2 construct: also called PfMyoA with its two light chains; MyoA:MTIP:ELC complex; copies: + +
T2 sequence 1: T1 sequence
T2 sequence 2: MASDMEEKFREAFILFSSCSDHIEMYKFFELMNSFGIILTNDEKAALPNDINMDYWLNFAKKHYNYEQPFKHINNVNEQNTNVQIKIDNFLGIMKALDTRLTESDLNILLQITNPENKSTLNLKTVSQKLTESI
T2 sequence 3: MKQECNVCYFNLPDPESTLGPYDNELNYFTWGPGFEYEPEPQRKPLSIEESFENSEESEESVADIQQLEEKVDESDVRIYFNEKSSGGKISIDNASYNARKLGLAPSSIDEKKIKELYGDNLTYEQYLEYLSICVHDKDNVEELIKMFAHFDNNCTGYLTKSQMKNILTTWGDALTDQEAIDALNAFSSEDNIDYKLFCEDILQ

B1: Plasmodium falciparum essential light chain (natural protein)
chain: T2 sequence 2
notes: also called PfELC; ELC
B2: Plasmodium falciparum actin 1 filament (natural protein)
chain: not shown
notes: source: polymerised with jasplakinolide

Assays:
Experiment in all cases: cryo-EM structure
[1] = molecular target: T1, Plasmodium falciparum myosin A; details: both partners purified
MyoA:ELC:MTIP complex = molecular target: T2, MyoA:ELC:MTIP complex; details: both partners purified
cryo-EM structure = molecular target: the molecule itself

Binder	binding result [1]	binding result (MyoA:ELC:MTIP complex)	binding result (cryo-EM structure)
B1	binds		
B2	binds	binds	binds
